From publication PMC8599861, “Structures of prokaryotic ubiquitin-like protein Pup in complex with depupylase Dop reveal the mechanism of catalytic phosphate formation” (Nature Communications, 2021)

Biological target: Prokaryotic ubiquitin-like protein Pup from Corynebacterium glutamicum with C-terminal glutamate (Corynebacterium glutamicum) (UniProt Q8NQE0)
Experiment: ITC; 25 °C, MicroCal iTC200; 150 µM CgluDop or 200 µM CgluDopGS injected into 15 or 20 µM CgluPupE in the cell; 50 mM Tris-HCl pH 8.0, 300 mM NaCl, 20 mM MgCl2; 1:1 binding model

Sequence of Prokaryotic ubiquitin-like protein Pup from Corynebacterium glutamicum with C-terminal glutamate (Corynebacterium glutamicum) (Q8NQE0 whole entry): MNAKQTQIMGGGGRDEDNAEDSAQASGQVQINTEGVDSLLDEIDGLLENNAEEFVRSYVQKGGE

Substance: CgluDopGS, Dop-loop variant of Dop from Corynebacterium glutamicum (Dop-loop H43-I77 replaced with (GS)4) (enzyme)
- fold tighter affinity than the wild type enzyme: 2.5 fold
